The source of these data is patent US20180104307A1 (University of California, published 2018).

For test [1], the target named is T1, His-Gαi3 (GDP-loaded) (UniProt P08753 1-354).
T1 construct: Purified protein, GDP-loaded
As to the kind of experiment: GST pulldown: GST-GIV-CT on glutathione-agarose beads with 0.01-3 µM His-Gαi3; anti-His band intensities fitted to a single-site hyperbola; three experiments.

Test [2] concerns the target T2, GST-Gαi3 (GDP loaded) (rat, UniProt P08753 1-354).
T2 construct: not shown: glutathione S-transferase tag encoded by pGEX-4T-1
As to the kind of experiment: GST pulldown with GDP-loaded GST-Gαi3, anti-His immunoblot. For orientation: A western blot detects proteins with antibodies after separation by electrophoresis.

T2 sequence (P08753 whole entry): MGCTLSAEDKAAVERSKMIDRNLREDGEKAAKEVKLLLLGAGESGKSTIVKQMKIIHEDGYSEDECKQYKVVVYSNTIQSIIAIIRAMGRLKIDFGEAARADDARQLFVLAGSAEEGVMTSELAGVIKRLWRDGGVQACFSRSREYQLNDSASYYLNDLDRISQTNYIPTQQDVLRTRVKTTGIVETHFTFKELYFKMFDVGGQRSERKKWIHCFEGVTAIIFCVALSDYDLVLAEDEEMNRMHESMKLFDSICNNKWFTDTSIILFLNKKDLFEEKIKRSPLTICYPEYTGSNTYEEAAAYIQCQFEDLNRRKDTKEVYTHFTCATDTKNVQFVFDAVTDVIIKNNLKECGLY
T1 sequence (P08753 whole entry): as above

B1: GST-GIV-CT (amino acids 1660-1870) (other)
chain: ETLESRHHKIKTGSPGSEVVTLQQFLEESNKLTSVQIKSSSQENLLDEVMKSLSVSSDFLGKDKPVSCGLARSVSGKTPGDFYDRRTTKPEFLRPGPRKTEDTYFISSAGKPTPGTQGKIKLVKESSLSRQSKDSNPYATLPRASSVISTAEGTTRRTSIHDFLTKDSRLPISVDSPPAAADSNTTAASNVDKVQESRNSKSRSREQQSS
notes: Immobilised on glutathione-agarose beads; also called GST-tagged GIV-CT peptide; not shown: glutathione S-transferase tag
As to B1, the affinity in test [1], expressed as Kd, was 240 nM.

B2: TAT-GIV-CT-F1685A (peptide)
chain: MRGSHHHHHHGMASMTGGQQMGRDLYDDDDKDRWGSKLGYGRKKRRQRRRGGSTMSGYPYDVPDYAGSMGGSGHSGETLESRHHKIKTGSPGSEVVTLQQALEESNKLTSVQIKSSSQENLLDEVMKSLSVSSDFLGKDKPVSCGLARSVSGKTPGDFYDRRTTKPEFLRPGPRKTEDTYFISSAGKPTPGTQGKIKLVKESSLSRQSKDSNPYATLPRASSVISTAEGTTRRTSIHDFLTKDSRLPISVDSPPAAADSNTTAASNVDKVQESRNSKSRSREQQSS
notes: Recombinant, made in E. coli; GEF-deficient mutant; also called TAT-GIV-CT-FA; FA
As for B2, in test [2], the binding result is listed as “no binding”.

For orientation: Kd means the constant that tells how readily two partners part at equilibrium.
